According to PMC6326814:

How the values were obtained:
[1] = target: BbvCI R2 subunit, wild type (Geobacillus brevis); experiment: SEC; purified enzyme at pH 7.5 (pH of the storage buffer); sample with 1:1 subunits by Supplementary Figure S1
[2] = target: BbvCI R2 subunit, wild type (Geobacillus brevis); experiment: crystal structure; crystal form 1, grown from the purified enzyme with dsDNA oligos against 0.8 M ammonium sulfate, 100 mM sodium acetate pH 4.5, 2 mM CaCl2; only R2 in the crystal

stoichiometry N [1]	stoichiometry N [2]	Substance
1 R1:R2	–	BbvCI R1 subunit, wild type (enzyme)
–	2	BbvCI R2 subunit, wild type (enzyme)
